{"source": "paper PMC3633488", "origin": "cited, not measured here", "target": "FGF-2 (Homo sapiens) (UniProt P09038)", "data": [{"substance": "perlecan (from UniProt P98160)", "values": [{"measurement": "Kd", "result": 70, "unit": "nM"}]}]}
